# Several values for one entry are separate records, joined by “and”; a condition that tells them apart may be missing. Equal entries are not always repeated.
# Assays:
# Type in all cases: biochemical
# FSAP MR I variant [1] = molecular target: T1, FSAP MR I variant (Homo sapiens, UniProt Q14520, G534E); test: Prourokinase-activating activity of FSAP with and without aprotinin (S-2444), MR I carrier plasma samples
# T1 construct: found for a plasma sample of a heterozygous carrier of the MR I polymorphism; from tissue
# T1 sequence (Q14520 314-560 G534E limits assumed): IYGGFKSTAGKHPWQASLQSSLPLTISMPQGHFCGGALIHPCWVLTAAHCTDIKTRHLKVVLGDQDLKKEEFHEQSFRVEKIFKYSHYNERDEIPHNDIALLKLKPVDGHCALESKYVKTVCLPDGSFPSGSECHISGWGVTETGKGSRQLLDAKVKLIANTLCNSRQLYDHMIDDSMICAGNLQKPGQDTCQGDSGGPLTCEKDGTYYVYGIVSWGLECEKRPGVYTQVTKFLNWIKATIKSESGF
# T1 sequence (Q14520 24-313 partner limits assumed): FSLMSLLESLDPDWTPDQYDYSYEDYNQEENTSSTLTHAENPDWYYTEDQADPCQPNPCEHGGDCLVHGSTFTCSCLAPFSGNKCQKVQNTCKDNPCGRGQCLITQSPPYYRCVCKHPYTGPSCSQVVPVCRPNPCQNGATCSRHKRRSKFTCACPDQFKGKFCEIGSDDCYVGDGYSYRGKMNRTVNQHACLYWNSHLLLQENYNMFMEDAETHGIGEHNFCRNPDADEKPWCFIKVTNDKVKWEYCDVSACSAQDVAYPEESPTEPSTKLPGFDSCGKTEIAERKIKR
# Description: (§1) An anti-FSAP antibody produced via the hybridoma cell line DSM ACC2453 was used as solid phase-associated binding partner having affinity for FSAP. Polystyrene microtiter plates (MTPs) were used as solid phase for carrying out the heterogeneous detection method. Anti-FSAP antibodies in 50 mM NaHCO3, pH 8.2, were associated onto the polystyrene solid phase with a coating volume of 120 μl per well of the MTP and a coating concentration of 20 μg of antibody per ml at room temperature overnight. Unbound antibodies were removed by washing three times with 50 mM sodium phosphate-buffered isotonic NaCl solution, 0.02% Tween® 20, pH 6.5.
# (§2) In each case 100 μl of a plasma sample to be determined were pipetted in a dilution of 1:80 in sample buffer (20 mM sodium citrate, pH 6.0, with 150 mM NaCl, 100 mM L-arginine monohydrochloride, 1% bovine serum albumin, 0.1% Tweene® 80, 100 I.U. of heparin/ml) into the wells. After incubation at +37° C. for one hour, unbound constituents were removed by washing three times with 50 mM sodium phosphate-buffered isotonic NaCl solution, 0.02% Tweene® 20, pH 6.5.
# (§3) The change in absorption (OD) of the reaction mixtures was followed at a wavelength of 405 nm. A differentiation between carriers and non-carriers of the FSAP MR I variant is possible through the formation of a quotient between vmax of the reaction kinetics of a sample without added aprotinin (vmax0) and with added aprotinin (vmax aprotinin). The following applies thereto: • FSAP wild type vmax0/FSAP wild type vmax aprotinin>FSAP MR I vmax0/FSAP MR I vmax aprotinin.
# (§4) The maximum slope of the time-conversion plots was determined by linear regression in a sufficiently linear region of the time-conversion plot and afforded the maximum reaction rate vmax of a reaction in mOD/min.
# FSAP wild type [2] = molecular target: T2, FSAP wild type (Homo sapiens, UniProt Q14520); test: Change in amidolytic activity of FSAP (S-2288) on addition of activity modulator during the reaction, wild-type sample
# T2 construct: found for a plasma sample of a non-carrier (wild type); from tissue
# T2 sequence (Q14520 24-560): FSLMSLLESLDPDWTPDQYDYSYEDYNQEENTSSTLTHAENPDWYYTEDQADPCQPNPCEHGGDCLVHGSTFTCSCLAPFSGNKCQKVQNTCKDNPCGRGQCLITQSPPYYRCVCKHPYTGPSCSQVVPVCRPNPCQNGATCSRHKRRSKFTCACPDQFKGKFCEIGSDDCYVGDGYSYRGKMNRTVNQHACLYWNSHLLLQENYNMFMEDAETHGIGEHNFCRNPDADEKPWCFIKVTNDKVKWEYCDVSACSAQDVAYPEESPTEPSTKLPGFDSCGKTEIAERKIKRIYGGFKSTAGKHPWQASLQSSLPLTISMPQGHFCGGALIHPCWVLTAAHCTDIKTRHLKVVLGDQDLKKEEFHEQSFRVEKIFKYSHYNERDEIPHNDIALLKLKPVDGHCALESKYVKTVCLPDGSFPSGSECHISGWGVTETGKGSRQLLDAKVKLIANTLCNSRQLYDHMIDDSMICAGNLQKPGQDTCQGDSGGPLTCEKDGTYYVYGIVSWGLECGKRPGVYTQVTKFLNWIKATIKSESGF
# Description: (§5) The microtiter plates used were the same as described in example 1. In each case 100 μl of a plasma sample to be determined were pipetted in a dilution of 1:15 in sample buffer (see example 1) into the wells. After incubation at +37° C. for one hour, unbound constituents were removed by washing three times as in example 1.
# (§6) To determine the amidolytic activity of FSAP, at time t0 in each case 80 μl of the chromogenic substrate S-2288 (1.5 mmol/L; Chromogenix Instrumentation Laboratory S.p.A., Milano, Italy) in a 50:50 mixture of test buffer I and test buffer II (see example 1for test buffer I and 11) were put into the MTP wells and incubated at +37° C. in a photometer. After about 60 minutes, aprotinin was added in a final concentration of 2.95 KIU/ml or the respective monoclonal antibody (MAb) was added in a final concentration of about 60 μg/ml per reaction mixture. The change in absorption of the reaction mixtures was followed at a wavelength of 405 nm, and the maximum reaction rate vmax was determined (see example 1). In order to reduce evaporation effects during the relatively long incubation time, a layer of mineral oil was put on top.
# Differentiation between carriers and non-carriers of the FSAP MR I variant is possible through forming a ratio, for example the quotient of the maximum reaction rate before addition of the differential activity modulator (vmax) and the maximum reaction rate after addition of the differential activity modulator (vmax aprotinin).
# Three independent measurements were carried out on the sample of the non-carrier of the FSAP MR I variant (wild-type sample; WT). Six independent measurements were carried out on the sample of the heterozygous carrier of the FSAP MR I variant (MR I). The averages (Av.) of vmax/vmax activity modulator (vmax/vmaxA) and the standard deviations relating to the population (SD) were calculated. The negative control, i.e. addition of a corresponding volume of test buffer I and test buffer II in the ratio 50:50 without activity modulator afforded an Av. vmax/vmaxA of 0.81 +/− 0.12. […]
# FSAP MR I variant [3] = molecular target: T1, FSAP MR I variant; test: Amidolytic activity of FSAP for S-2288 with and without aprotinin, MR I carrier plasma samples
# Description: as §5, with “1:50” for “1:15”, “with 50 mM sodium phosphate-buffered isotonic NaCl solution, 0.02% Tweene® 20, pH 6.5.” for “as in example 1.”
# (§7) In order to reduce evaporation effects during the relatively long incubation time in the MTP, a layer of mineral oil was put on top.
# as §3, with “nm, and the maximum reaction rate vmax was determined (see example 1). Differentiation” for “nm. A differentiation”, “ratio (quotient)” for “quotient”
# FSAP wild type [4] = molecular target: T2, FSAP wild type; test: Prourokinase-activating activity of FSAP with and without aprotinin (S-2444), wild-type plasma samples
# Description: as §1, §2, §3, §4
# FSAP wild type [5] = molecular target: T2, FSAP wild type; test: Amidolytic activity of FSAP for S-2288 with and without aprotinin, wild-type plasma samples
# Description: as §5, with “1:50” for “1:15”, “with 50 mM sodium phosphate-buffered isotonic NaCl solution, 0.02% Tweene® 20, pH 6.5.” for “as in example 1.”
# as §7
# as §3, with “nm, and the maximum reaction rate vmax was determined (see example 1). Differentiation” for “nm. A differentiation”, “ratio (quotient)” for “quotient”
# FSAP MR I variant [6] = molecular target: T1, FSAP MR I variant; test: Change in amidolytic activity of FSAP (S-2288) on addition of activity modulator during the reaction, MR I sample; settings: vmax before/after modulator added at about 60 min; aprotinin 2.95 KIU/ml, MAb about 60 μg/ml; six measurements; negative control 0.81
# Description: as §5
# as §6, with “In order to reduce evaporation effects during the relatively long incubation time, a layer of mineral oil was put on top.” left out
# Three independent measurements were carried out on the sample of the non-carrier of the FSAP MR I variant (wild-type sample; WT). […] The averages (Av.) of vmax/vmax activity modulator (vmax/vmaxA) and the standard deviations relating to the population (SD) were calculated. […]
# [7] = average over MR I samples, 0.055 KIU/ml aprotinin
# [8] = without vs 0.055 KIU/ml aprotinin, MR I samples, one value per sample
# [9] = average over WT samples, 0.055 KIU/ml aprotinin
# [10] = without vs 0.055 KIU/ml aprotinin, WT samples, one value per sample
substance,measurement,setting,value
aprotinin,vmax aprotinin,"FSAP MR I variant [1]; 0.055 KIU/ml aprotinin, MR I plasma samples 1:80, S-2444, one value per sample",2.00 mOD/min and 1.84 mOD/min and 2.45 mOD/min
same,Av. vmax0/vmax aprotinin,FSAP MR I variant [1]; [7],1.43
same,Av. vmax0 − vmax aprotinin,FSAP MR I variant [1]; [7],0.90 mOD/min
same,vmax0/vmax aprotinin,FSAP MR I variant [1]; [8],1.52 and 1.35 and 1.41
same,vmax0 − vmax aprotinin,FSAP MR I variant [1]; [8],1.04 mOD/min and 0.64 mOD/min and 1.01 mOD/min
same,"inhibition of FSAP amidolytic activity after addition of aprotinin in a single reaction mixture, non-carrier versus heterozygous carrier","FSAP wild type [2]; FIG. 5, aprotinin added at a reaction time of about one hour",inhibited more strongly in the sample of the non-carrier
same,WT/MRI quotient of Av. vmax/vmax A,"FSAP wild type [2]; WT sample versus heterozygous MR I sample, aprotinin 2.95 KIU/ml, MAb about 60 μg/ml",1.35
same,WT Av. vmax/vmax A,"FSAP wild type [2]; vmax before/after modulator added at about 60 min, aprotinin 2.95 KIU/ml, MAb about 60 μg/ml, three measurements, negative control 0.81",16.72
same,vmax aprotinin,"FSAP MR I variant [3]; 0.055 KIU/ml aprotinin, MR I plasma samples 1:50, S-2288, one value per sample",1.22 mOD/min and 0.94 mOD/min and 1.87 mOD/min
same,Av. vmax0/vmax aprotinin,FSAP MR I variant [3]; [7],1.04
same,Av. vmax0 − vmax aprotinin,FSAP MR I variant [3]; [7],0.07 mOD/min
same,vmax0/vmax aprotinin,FSAP MR I variant [3]; [8],1.02 and 1.03 and 1.08
same,vmax aprotinin,"FSAP wild type [4]; 0.055 KIU/ml aprotinin, WT plasma samples 1:80, S-2444, one value per sample",13.82 mOD/min and 12.09 mOD/min and 8.81 mOD/min and 11.84 mOD/min
same,"inhibition of prourokinase-activating activity of FSAP, non-carrier sample versus heterozygous carrier sample","FSAP wild type [4]; FIGS. 1 and 2, 0.036 and 0.055 KIU/ml final aprotinin concentration",substantially more strongly
same,Av. vmax0/vmax aprotinin,FSAP wild type [4]; [9],2.01
same,Av. vmax0 − vmax aprotinin,FSAP wild type [4]; [9],11.37 mOD/min
same,vmax0/vmax aprotinin,FSAP wild type [4]; [10],1.90 and 1.78 and 2.41 and 1.95
same,vmax0 − vmax aprotinin,FSAP wild type [4]; [10],12.42 mOD/min and 9.38 mOD/min and 12.44 mOD/min and 11.23 mOD/min
same,vmax aprotinin,"FSAP wild type [5]; 0.055 KIU/ml aprotinin, WT plasma samples 1:50, S-2288, one value per sample",6.90 mOD/min and 9.57 mOD/min and 7.52 mOD/min
same,"inhibition of amidolytic activity of FSAP, non-carrier sample versus heterozygous carrier sample","FSAP wild type [5]; FIGS. 3 and 4, 0.036 and 0.055 KIU/ml final aprotinin concentration",considerably more strongly
same,Av. vmax0/vmax aprotinin,FSAP wild type [5]; [9],1.48
same,Av. vmax0 − vmax aprotinin,FSAP wild type [5]; [9],3.81 mOD/min
same,vmax0/vmax aprotinin,FSAP wild type [5]; [10],1.45 and 1.47 and 1.51
same,vmax0 − vmax aprotinin,FSAP wild type [5]; [10],3.09 mOD/min and 4.49 mOD/min and 3.86 mOD/min
same,MRI Av. vmax/vmax A,FSAP MR I variant [6],12.36

# Source: US20070190574A1, “Diagnostic method for identifying carriers of the Marburg I variant of factor VII-activating protease (FSAP) on the basis of differential modulation of FSAP activity” (DADE BEHRING MARBURG GmbH, priority 2005, published 2007)
